# Article PMC3750215
# System: Mdj1 (wt, mature)
# Experiment: EMSA
# Settings: EMSA with 0.36 nM 32P-ori5 DNA; buffer, salt, pH and temperature not given (as described in ref 35)
substance,measurement,value
ori5 71 bp fragment,Kd,210 nM
